Legend:
[1] = test system: ATR pT1989 phospho-peptides conjugated to BSA; test: ELISA against phospho-peptide-BSA conjugates (bleed, hybridoma and clone screening); assay type: binding, human
Protocol: (§1) The titer results from the pair of rabbits for each peptide antigen were determined in a colorimetric ELISA against BSA-conjugated peptides. Plates were coated with 50ng/well peptide-BSA conjugate in bicarbonate buffer pH 9.6 and incubated at 4° C. overnight, then and blocked with 1% BSA in TBS. Diluted (1:250-1:256,000) rabbit anti-sera (50 ul/well) were added and incubated at room temperature. Plates were washed with Tris-buffered saline with 0.05% Tween (TBST). Anti-rabbit secondary conjugated to alkaline phosphatase was used for detection with p-nitrophenyl phosphate (PNPP) substrate. Plates were read at 405 nm with a plate reader.
Independent screening of blood was conducted. Flat bottom, black, high binding 360 μL plates with clear bottom (VWR catalog #29444-037) were coated with 100 ng/well peptide-BSA conjugate in bicarbonate buffer pH 9.6 (Sigma, catalog # C3041-100CAP) and incubated at 4° C. overnight, then and blocked with ODYSSEY® blocking buffer (LiCor, catalog #927-40010). Diluted (1:250-1:1,000,000) rabbit anti-sera (100 ul/well) were added and incubated at 24 C. Plates were washed with phosphate-buffered saline with 0.05% tween-20 (PBS-T). […] Plates were read at 700 nm with a Licor ODYSSEY® scanner. Images were quantified using Licor ODYSSEY® application software v3.0 (FIGS. 3 and 4).
Cell growth was monitored 2-3 weeks after fusion. […]

[2] = test system: non-phospho peptide-BSA conjugates; test: Direct ELISA against non-phospho peptide-BSA conjugates; assay type: binding, human
Protocol: as §1

pT1989 ATR = target: T1, pT1989 ATR (Homo sapiens, UniProt Q13535); test: Western blot of cell lysates probed with anti-ATR-pT1989 antibodies; assay type: binding
T1 construct: lysates from cells expressing ATR (HT-29, LoVo and DLD-1); endogenous in cells; host or cells: DLD-1 parental, DLD-1 Seckel (Horizon), HT-29, LoVo; with or without gemcitabine
Protocol: Cell growth was monitored 2-3 weeks after fusion. Hybridoma supernatants were screened by standard colorimetric ELISA against BSA-conjugated peptides as described in section C. The screening process consisted of a Primary screen on 40 plates (using bleed 2 of E5571 at 1:100 dilution as a Positive control) clones (44) with O.D. greater than 0.5 were considered putatively positive and were further expanded to 24-well plate. Confirmatory screen was performed and 6 clones were confirmed positive against phospho-specific peptides (Table 4). Additional screening was performed by ELISA using the same assay as for bleed screening (FIG. 5). Western blotting was done on selected clones #7, 27 and 35 for subcloning (FIG. 6). […]
Details for lysate preparation and Western blotting are given in Example I, section E. The antibody detected a single band at about 250 kDa consistent with the predicted molecular weight (MW) for ATR. The antibody also detected an increase in phospho-ATR (pT1989) upon gemcitabine (SIGMA) treatment which is known to increase ATR activity (Mol. Pharmacol. (2005), 68, 1636-1644). […]
Cells were treated for 4 hours with either vehicle (DMSO, 0.01%), 150 nM Gemcitabine (Sigma), 1 uM ATR inhibitor VE-821 or combination of drugs. The antibody detected a single band at about 250 kDa consistent with the predicted MW for ATR. […]

[3] = target: T2, pT1989ATR foci in cell nuclei (Homo sapiens, UniProt Q13535); test: Immunofluorescence assay (IFA) on FFPE cells, antibody performance; assay type: binding
T2 construct: lysates from cells expressing ATR (HT-29, LoVo and DLD-1); endogenous in cells; host or cells: DLD-1 parental, DLD-1 Seckel (Horizon), HT-29, LoVo; with or without gemcitabine
Protocol: Subclones were screened by several assays. Screening was performed by enzyme-linked immunosorbant assay (ELISA) and Western blot for subclones of clones #7, 27 and 35 for subcloning. Subclones of clone #7 were then tested in an immunofluroescent (IFA) assay. Clone #7 was then tested in IFA assay. Formalin fixed paraffin embedded (FFPE) blocks were prepared from DLD-1 cells and DLD-1 Seckel cells treated with and without gemcitabine treatment (100 nM for 4 h). Slides were stained using neat hybridomas supernatants and imaged at 20×.
Formalin fixed paraffin embedded (FFPE) pellets were generated using cells expressing WT ATR (HT29, DLD-1 Parental) or mutated ATR (DLD-1 Seckel (Horizon)), with and without gemcitabine (SIGMA) treatment to induce ATR phosphorylation at pT1989 (Mol. Pharmacol. 2005, 68, 1636-1644). Cells were harvested by trypsinization, transferred into a sterile 50 ml conical centrifuge tubes with media containing 10% serum and pelleted at 1000×g for 5 minutes. Medium was replaced with fresh serum containing medium and centrifuged again at 1000×g, 5 minutes. All but 1 ml (approximately) of medium was removed and the pellet was re-suspended by flicking the tube. Suspended cells were transferred using a 2 ml pipette into a clean 1.5 ml conical Eppendorf tube. Cells were pelleted for 30 seconds at 8,000 rpm in an Eppendorf micro centrifuge. […]

T1 sequence (Q13535 whole entry): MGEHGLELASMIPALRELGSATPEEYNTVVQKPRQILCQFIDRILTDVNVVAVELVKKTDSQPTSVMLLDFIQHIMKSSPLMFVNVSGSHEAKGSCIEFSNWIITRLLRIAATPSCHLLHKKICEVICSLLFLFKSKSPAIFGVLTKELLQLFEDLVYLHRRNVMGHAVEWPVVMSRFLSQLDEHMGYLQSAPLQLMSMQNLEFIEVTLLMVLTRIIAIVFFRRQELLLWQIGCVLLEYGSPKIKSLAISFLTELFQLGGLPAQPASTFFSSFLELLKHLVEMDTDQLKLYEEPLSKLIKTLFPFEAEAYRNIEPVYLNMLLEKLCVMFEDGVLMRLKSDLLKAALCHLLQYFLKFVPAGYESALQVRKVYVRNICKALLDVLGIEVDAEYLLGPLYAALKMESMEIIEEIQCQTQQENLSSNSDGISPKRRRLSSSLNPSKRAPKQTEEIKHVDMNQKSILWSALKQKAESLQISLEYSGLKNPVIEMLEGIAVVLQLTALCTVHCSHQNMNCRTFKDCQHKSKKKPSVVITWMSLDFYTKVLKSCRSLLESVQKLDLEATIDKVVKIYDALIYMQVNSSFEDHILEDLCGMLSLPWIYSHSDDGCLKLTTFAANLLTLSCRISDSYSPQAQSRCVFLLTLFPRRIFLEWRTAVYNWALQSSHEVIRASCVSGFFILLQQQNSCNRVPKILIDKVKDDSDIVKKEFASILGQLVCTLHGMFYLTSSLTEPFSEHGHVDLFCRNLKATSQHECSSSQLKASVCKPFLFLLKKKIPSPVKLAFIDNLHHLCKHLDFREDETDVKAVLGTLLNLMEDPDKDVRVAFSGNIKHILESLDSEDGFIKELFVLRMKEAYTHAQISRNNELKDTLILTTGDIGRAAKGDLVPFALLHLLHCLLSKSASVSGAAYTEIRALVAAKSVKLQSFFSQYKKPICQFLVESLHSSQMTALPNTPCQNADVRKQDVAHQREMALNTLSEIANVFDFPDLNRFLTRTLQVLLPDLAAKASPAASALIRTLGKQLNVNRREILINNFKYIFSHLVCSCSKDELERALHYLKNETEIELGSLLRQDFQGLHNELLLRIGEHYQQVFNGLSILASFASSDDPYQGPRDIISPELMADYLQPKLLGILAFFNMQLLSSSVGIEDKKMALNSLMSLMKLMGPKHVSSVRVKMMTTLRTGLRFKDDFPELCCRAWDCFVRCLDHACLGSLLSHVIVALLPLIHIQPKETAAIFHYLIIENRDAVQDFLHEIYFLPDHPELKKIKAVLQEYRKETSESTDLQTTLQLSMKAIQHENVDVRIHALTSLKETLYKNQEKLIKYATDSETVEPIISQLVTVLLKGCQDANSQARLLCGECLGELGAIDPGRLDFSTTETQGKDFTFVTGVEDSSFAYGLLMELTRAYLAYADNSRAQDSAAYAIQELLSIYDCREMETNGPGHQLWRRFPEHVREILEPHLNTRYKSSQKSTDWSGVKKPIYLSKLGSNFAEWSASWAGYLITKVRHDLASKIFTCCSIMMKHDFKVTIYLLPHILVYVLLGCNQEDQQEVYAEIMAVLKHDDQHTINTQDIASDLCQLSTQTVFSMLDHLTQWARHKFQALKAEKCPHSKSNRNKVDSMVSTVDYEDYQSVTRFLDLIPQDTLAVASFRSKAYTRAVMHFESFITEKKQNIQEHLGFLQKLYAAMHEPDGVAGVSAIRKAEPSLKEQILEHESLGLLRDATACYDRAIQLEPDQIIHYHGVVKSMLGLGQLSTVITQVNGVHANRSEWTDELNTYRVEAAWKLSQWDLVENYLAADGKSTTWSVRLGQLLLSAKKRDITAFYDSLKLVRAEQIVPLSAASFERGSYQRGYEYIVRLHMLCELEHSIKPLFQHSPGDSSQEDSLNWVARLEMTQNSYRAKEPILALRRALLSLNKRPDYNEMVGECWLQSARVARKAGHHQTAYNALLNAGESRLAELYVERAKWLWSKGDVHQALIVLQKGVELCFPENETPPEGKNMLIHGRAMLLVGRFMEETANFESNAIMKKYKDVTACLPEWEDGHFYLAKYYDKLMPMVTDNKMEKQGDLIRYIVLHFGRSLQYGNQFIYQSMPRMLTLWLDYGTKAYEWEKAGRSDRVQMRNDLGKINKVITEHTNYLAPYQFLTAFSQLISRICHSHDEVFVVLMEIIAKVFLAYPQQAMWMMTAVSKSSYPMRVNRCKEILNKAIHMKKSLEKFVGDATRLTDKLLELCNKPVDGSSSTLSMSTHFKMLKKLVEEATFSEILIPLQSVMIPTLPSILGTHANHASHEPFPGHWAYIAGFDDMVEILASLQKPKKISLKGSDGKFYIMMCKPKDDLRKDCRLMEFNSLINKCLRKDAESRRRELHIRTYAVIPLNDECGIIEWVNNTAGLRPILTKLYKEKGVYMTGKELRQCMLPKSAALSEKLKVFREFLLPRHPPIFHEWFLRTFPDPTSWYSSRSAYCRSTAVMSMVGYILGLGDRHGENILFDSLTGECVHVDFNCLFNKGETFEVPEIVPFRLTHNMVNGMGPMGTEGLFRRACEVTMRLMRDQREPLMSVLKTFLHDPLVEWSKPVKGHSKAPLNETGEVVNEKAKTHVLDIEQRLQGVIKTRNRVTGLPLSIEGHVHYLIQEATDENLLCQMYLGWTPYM
T2 sequence (Q13535 whole entry): as above

- binding to phosphopeptide-BSA conjugates ([1]; peptide conjugated at C term or N-term to BSA): bound the phosphopeptide
- specificity and sensitivity in Western blot (pT1989 ATR): specific for pT1989 ATR
- detection of pATR in Western blot (pT1989 ATR; antibody dilution 1:50, DLD1 lysates): detected pATR specifically
- suitability for pharmacodynamic IFA assay applications [3]: successfully used
B1: Clone 7A7: subclone of hybridoma 7; rabbit monoclonal antibody that specifically binds pT1989 ATR (antibody)
heavy: QSVEESGGRLVAPGTPLTLTCTVSGIDLMYNAMNWVRQAPGKGLEFIGMIGSGGNTVYASWAKGRFTISKTSTTVGLKMTSLTQEDTATYFCAREGSGGSMDFWGPGTLVTVSSGQPKAPSVFPLAPCCGDTPSSTVTLGCLVKGYLPEPVTVTWNSGTLTNGVRTFPSVRQSSGLYSLSSVVSVTSSSQPVTCNVAHPATNTKVDKTVAPSTCSKPTCPPPELLGGPSVFIFPPKPKDTLMISRTPEVTCVVVDVSQDDPEVQFTWYINNEQVRTARPPLREQQFNSTIRVVSTLPIAHQDWLRGKEFKCKVHNKALPAPIEKTISKARGQPLEPKVYTMGPPREELSSRSVSLTCMINGFYPSDISVEWEKNGKAEDNYKTTPAVLDSDGSYFLYSKLSVPTSEWQRGDVFTCSVMHEALHNHYTQKSISRSPGK
light: ALVMTQSPSSVSAAVGGTVTITCQASQSLYNNNYLAWFQQKPGQRPKLLIYKASTLASGVPSRFKGSGSGTQFTLTISDLECEDAATYYCLGEYKDNVDDGNAFGGGTEVVVEGDPVAPTVLIFPPAADQVATGTVTIVCVANKYFPDVTVTWEVDGTTQTTGIENSKTPQNSADCTYNLSSTLTLTSTQYNSHKEYTCKVTQGTTSVVQSFNRGDC
- specificity, titers for BSA conjugated phosphorylated and non-phosphorylated peptides ([1]; FIG. 5C): specific for the phosphorylated polypeptides
- cross-reactivity with non-phospho peptide-BSA conjugates [2]: did not cross-react

— patent US9644037B2, “Antibodies that specifically bind ataxia telangiectasia-mutated and RAD3-related kinase phosphorylated at position 1989 and their use” (THE UNITED STATES OF AMERICA, AS REPRESENTED BY THE …, priority 2013, dated 2017)
